Two molecules from patent US7638490B2, “Methods of affecting feeding and weight in mammals by administration of relaxin-3” (priority 2004, dated 2009) can be followed below.

In assay [1] the target is T1, SALPR (Homo sapiens, UniProt Q9NSD7).
T1 construct: expressed in transfected cells; host or cells: SE302 cells (HEK293 clone carrying a CRE-VIP promoter PLAP reporter), transduced with retrovirus vector pBabeCL(SALPR)IH and selected with hygromycin
T1 sequence (Q9NSD7 1-469): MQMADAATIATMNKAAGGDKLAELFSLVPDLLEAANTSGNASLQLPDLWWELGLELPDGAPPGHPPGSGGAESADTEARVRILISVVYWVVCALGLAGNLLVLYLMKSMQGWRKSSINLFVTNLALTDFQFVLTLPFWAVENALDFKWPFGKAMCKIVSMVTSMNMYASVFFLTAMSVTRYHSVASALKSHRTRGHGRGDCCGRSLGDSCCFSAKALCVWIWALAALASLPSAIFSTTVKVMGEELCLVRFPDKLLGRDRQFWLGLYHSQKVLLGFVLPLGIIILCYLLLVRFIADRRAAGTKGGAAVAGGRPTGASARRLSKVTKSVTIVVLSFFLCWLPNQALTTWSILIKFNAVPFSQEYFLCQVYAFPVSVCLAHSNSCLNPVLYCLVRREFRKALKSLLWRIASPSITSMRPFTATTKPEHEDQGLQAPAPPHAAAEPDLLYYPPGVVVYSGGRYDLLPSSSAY
The assay is described as follows: Suppression of forskolin-increased transcription activity (CRE-PLAP reporter) in SALPR-SE302 cells. Format: cell-based. The settings on record: forskolin 1 μmol/L, 1 day incubation, alkaline phosphatase reporter. The protocol:
On the following day, relaxin-3 (Phoenix Pharmaceuticals) or insulin (Invitrogen) diluted with an assay medium (DMEM supplemented with 0.1% bovine serum albumin) in specified concentrations was added, after which forskolin (Calbiochem) was added to make a final concentration of 1 μmol/L. After 1 day incubation, 15 μl each of the cell supernatant was recovered and then transferred to a 96-well plate for chemiluminescence measurement (Sumitomo Bakelite), 60 μl of buffer solution for assay (280 mmol/L Na2CO3—NaHCO3, 8 mmol/L MgSO4, pH 10) and 70 μl of Lumiphos530 (Lumigen) were added and the reaction was carried out at room temperature for 1 hour, after which chemiluminescence for each well was measured by a fusion plate reader (Perkin Elmer) to assess the transcription activity.

Assay [2] deals with T1, SALPR. The experiment in a line: Screening for relaxin-3 antagonistic substance using SALPR-SE302 cells (CRE-PLAP reporter). Format: cell-based. The settings on record: 3 μmol/L forskolin, relaxin-3 at 3 nmol/L.
Assay [3] is described as follows: Amount of feeding after single intracerebroventricular administration. The settings on record: Wistar male rats, single icv, about 50 pmol/rat, 2 hours after administration, vs vehicle, t-test p<0.01. Format: in vivo. The procedure:
Wistar male rats (7 weeks of age; Japan Charles River) were fed feed for experimental animals (MF; Oriental Yeast) to be adapted. The rats (250 to 300 g) received cannulation into the lateral cerebroventricle under anesthesia. Administration experiments were carried out a week or later. Relaxin-3 (60 μg; Phoenix Pharmaceuticals) was dissolved in DMSO and added with an artificial cerebrospinal fluid to make a final concentration of 200 μmol/L. The deposited precipitate was removed by centrifugation and the resulting supernatant was used as a relaxin-3 administration solution. The amount of administration (relaxin-3 concentration in the administration solution) was about 50 pmol/rat when calculated using the standard curve with relaxin-3 in the experimental system shown in Example 7. Rats with guide cannula implantation were divided into 2 groups (6 animals per group) and administered with the relaxin-3 administration solution or a vehicle solution (a solution having the same composition as (2) above without relaxin-3) at a rate of 5 μl/2 minutes using an infusion pump. Immediately after the intracerebroventricular administration of the administration solution, rats were put in a cage where pre-weighed feed was placed and fed ad libitum. The amount of feeding was calculated by measuring the decrease in feed 2 hours later.

Assay [4] is described as follows: Body weight gain under chronic intracerebroventricular administration (locomotor study). Format: in vivo, rat. The settings on record: Wistar male rats (5 weeks of age), chronic icv by osmotic pump, from day 1 after administration. The protocol: A relaxin-3 solution was prepared by dissolving relaxin-3 (Peptide Institute, Inc.) in physiological saline at a concentration of 100 μmol/L. A vehicle solution (physiological saline) or the relaxin-3 solution was poured into an osmotic pump (Alzet osmotic pump model 1002 (DURECT), delivering at 6 μ/day), a tube and a cannula for administration, after which they were connected together. Wistar male rats (5 weeks of age; Japan Charles River) were fed feed for experimental animals (MF; Oriental Yeast) and adapted to individual cages for 5 days. Under anesthesia, a guide cannula was inserted into the lateral cerebroventricle of these rats (170-200 g) and an osmotic pump was implanted under the skin. The operation date was set to be day 0. The rats had free access to feed and water and the body weight was measured every morning, except on days for locomotor activity measurement (FIG. 11).

Assay [5] is described as follows: Body weight gain and amount of feeding under chronic intracerebroventricular administration. Format: in vivo, rat. The settings on record: Wistar male rats, chronic icv by osmotic pump, 100 μmol/L at 6 μl/day. The protocol:
A relaxin-3 solution was prepared by dissolving relaxin-3 (Peptide Institute, Inc.) in physiological saline at a concentration of 100 μmol/L. A vehicle solution (physiological saline) or the relaxin-3 solution was poured into an osmotic pump (Alzet osmotic pump model 1002 (DURECT); delivering 6 μl/day), a tube and a cannula for administration, after which they were connected together. Wistar male rats (6 weeks of age; Japan Charles River) were fed feed for experimental animals (MF; Oriental Yeast) and adapted to individual cages for 4 days. Under anesthesia, a guide cannula was inserted into the lateral cerebroventricle of these rats (250-270 g) and an osmotic pump was implanted under the skin. The rats had free access to feed and their body weight and feeding were measured every morning. Further, the decrease in the amount of feed per day is shown as the amount of feeding (FIG. 8).

The nature of assay [6]: Spontaneous locomotor activity under chronic intracerebroventricular administration. Format: in vivo, rat. The settings on record: rats, chronic icv; light phase days 2 and 7, dark phase days 3 and 8. The procedure: Spontaneous locomotor activity was measured using a Versamax system (Accuscan) in the light phase and dark phase on days when significant difference in body weight increasing activity in the rats receiving relaxin-3 administration was recognized.

A short description of assay [7]: Epididymal fat weight, blood leptin and blood insulin after chronic intracerebroventricular administration. Format: in vivo, rat. To be noted: rats, chronic icv administration, day 14, vs vehicle. The protocol: After measuring body weight and the amount of feed on the last day of the experiment (day 14), the rats were anesthetized with Nembutal, epididymal fat was taken and the total fat weight was measured (FIG. 9). Further, the blood was taken from the abdominal aorta. The blood was centrifuged at 1,750×g for 15 minutes and the resulting supernatant was stored at −80° C. Later, the amount of leptin in the supernatant was quantitatively determined by a rat leptin measuring kit (L) (IBL) (FIG. 10A). Further, the amount of insulin in the supernatant was quantitatively determined by an ultra sensitive rat insulin measuring kit (Morinaga Institute of Biological Science) (FIG. 10B).

Assay [8] can be described thus: Blood leptin concentration after single intracerebroventricular administration. The settings on record: rats, single icv administration, about 3 hours after administration, vs vehicle, t-test p<0.05. Format: in vivo, rat. The procedure: The above-mentioned rats were anesthetized with Nembutal after the feeding measurement (about 3 hours after administration) and the blood was taken from the abdominal aorta. The blood taken was centrifuged at 1,750×g for 15 minutes and the resulting supernatant was stored at −80° C. Later, the amount of leptin in the supernatant was quantitatively determined by a rat leptin quantification ELISA kit (Amersham Bioscience).

For the molecule “insulin: related peptide (Invitrogen) used as specificity control in the SALPR reporter test [reference compound]”, the “effect on increase in transcription activity by forskolin” value with SALPR [1] was “not affected”.

B1: relaxin-3: polypeptide called relaxin-3 (INSL7) comprising the amino acid sequence of SEQ ID NO: 2; natural ligand of SALPR (protein, listed as Homo sapiens)
chain: MARYMLLLLLAVWVLTGELWPGAEARAAPYGVRLCGREFIRAVIFTCGGSRWRRSDILAHEAMGDTFPDADADEDSLAGELDEAMGSSEWLALTKSPQAFYRGRPSWQGTPGVLRGSRDVLAGLSSSCCKWGCSKSEISSLC
In the case of B1, the “effect on increase in transcription activity by forskolin” value in the assay with SALPR [2] is on record as “suppressed the increase in transcription activity by forskolin”; with SALPR [1] it was “suppressed via SALPR activation the increase in transcription activity by forskolin”. The results for the amount of feeding entry in assay [3] and in assay [5] (from day 1) were “significantly increased” and “significant increase in the amount of feeding”, respectively. Further, the body weight increase result in assay [4] and in assay [5] (from day 1 after operation) was “significant increase in body weight” throughout. The “spontaneous locomotor activity (total for 90 minutes)” value in assay [6] is on record as “No significant change in locomotor activity”. The “amount of epididymal fat” value in assay [7] was “significantly increased”. Also, the “insulin concentration in blood” value in assay [7] is reported as “significantly increased”. Moreover, the “leptin concentration in blood” value in assay [7] is listed as “significantly increased”. The blood leptin concentration result in assay [8] is reported as “significantly increased”.
